Patent US20230250158A1 (TALEM THERAPEUTICS, published 2023)
Like-named read-outs stand apart in the source and are kept apart here.

Experiments:
[1] = molecular target: SARS-CoV-2 Spike protein on VSV pseudotyped virus particles (Wuhan-1 isolate Spike sequence) (SARS-CoV-2, UniProt P0DTC2 13-1273); assay: cell-based or functional assay
[2] = molecular target: Wuhan-1; assay: flow cytometry on Spike-transfected HEK293F cells, heat map
[3] = molecular target: T1, SARS-CoV-2 Spike RBD-hFc (SARS-CoV-2, UniProt P0DTC2 319-541); assay: Octet BLI; Fab as analyte over RBD-hFc on AHC sensors; 1:1 kinetic fit
[4] = molecular target: T2, SARS-CoV-2 Spike S1-hFc (SARS-CoV-2, UniProt P0DTC2 16-685); assay: Octet BLI; Fab as analyte over S1-hFc on AHC sensors; 1:1 kinetic fit
[5] = molecular target: T1, SARS-CoV-2 Spike RBD-hFc
[6] = molecular target: T2, SARS-CoV-2 Spike S1-hFc
[7] = molecular target: SARS-CoV-2 Spike on SARS-CoV2-S CHO-K1 cells (wild-type, Wuhan-1) (SARS-CoV-2, UniProt P0DTC2 13-1273); assay: flow cytometry on SARS-CoV2-S CHO-K1 cells, anti-human IgG-PE detection
[8] = molecular target: T1, SARS-CoV-2 Spike RBD-hFc; assay: Octet, Fab as analyte over RBD-hFc on AHC sensor
[9] = molecular target: T1, SARS-CoV-2 Spike RBD-hFc; assay: Octet BLI; Fab as analyte over RBD-hFc on AHC sensors; steady-state analysis

B1: 5-B6 (antibody, V domains shown)
VH: QVQLVQSGAEVKKPGSSVKVSCKASGGTFSSYAISWVRQAPGQGLEWVGGIIPMFNSASYAQKFQGKVTITADKATNTAYMELSSLRSEDTAVYYCARESSGYYYVSNWFDPWGQGTLVTVSS
VL: QSVLTQPSSVSGAPGQRVTISCTGSSSNIGAGYDVHWYQQIPGTAPRLLIYANSGRASGVPDRFSGSKSGTSASLAITGLQAEDEADYYCQSYDSSLSGVVFGGGTKLTVL
B1 was tested, and the “Pseudovirus IC50” value [1] was greater than 42 µg/mL.

B2: 2-A6 (antibody, V domains shown)
VH: QVTLRESGPALVKPTQTLTLTCTFSGFSLNTRGMSVSWIRQPPGKALEWLALIDWEDDKFYRTSLMTRLTISKDIFKNQVVLTMTNVDPVDTGTYYCARTYSVGVKYFGMDVWGQGTTVTVSS
VL: SSELTQDPAVSVALGQTVRITCQGDSLRNYYASWYRQEPGQAPILLIYGGNYRPSGIPDRFSGSSSGNTASLTITGAQAEDEADYYCNSRDSSGNHVVFGGGTKLTVL
notes: also called bin S2
With B2 the “Pseudovirus IC50” value [1] was greater than 42 µg/mL.

B3: 24-B8 (antibody, V domains shown)
VH: QVQLVQSGAEVKKPGSSVKVSCKASGGTFSNYAISWVRQAPGQGLEWMGGIIPILDTTNYAQKFQGRVTITADESTSTAYMELNSLRSEDTAVYYCVREEGFDYWGQGTLVTVSS
VL: QSVLTQPSSLSASPGASASLTCTLRSGINVGAYNIYWYQQKPGSPPQFVLRYNSDSDNQQGSGVPSRFSGSKDASANAGILLISGLQSEDEAEYYCMIWRSSAWVFGGGTKLTVL
B3 was tested, and the “Pseudovirus IC50” value [1] was 6.26 µg/mL.

B4: 22-F7 (antibody, V domains shown)
VH: QVQLVESGGGVVQPGRSLRLSCAASGFSFTNYGMHWVRQAPGKGLEWVAVISYDGSIKYYEDSLKGRFTVSRDNSKKTLYLQMNSLRAEDTAVYYCTRERGTGIDYWGLGTLVTVSS
VL: QSALTQPASVSGYPGQSITLSCTGTKSDIGAYNYVSWYQQHPGKAPKLMVYDVSNRPSGLSNRFSGSKSDNTASLTISGLQAEDEAHYYCSSYTTSGTVVFGGGTKVTVL
notes: also called bin C
B4 was tested, and the “Pseudovirus IC50” value [1] was 12.6 µg/mL.

B5: 22-E8 (antibody, V domains shown)
VH: QVQLVQSGAEVKKPGSSVKVSCKASGGTFSSYAISWVRQAPGQGLEWMGGIIPIFGTTNYAQKFQGRVTITADESTSTAYMELSSLRSEDTAVYYCARDHGYYYGMDVWGQGTTVTVSS
VL: QSVLTQPSSVSAAPRQRVTLSCSGGDSNIGQNGVNWYLHVPGKAPRLVVYYDYLVSAGMSARFSGSRSGTSASLAISGLQSEDEGVYYCASWDDSLSAWVFGGGTKLTVL
In the case of B5, the “Pseudovirus IC50” value [1] is reported as 11.2 µg/mL.

B6: 23-A11 (antibody, V domains shown)
VH: QVQLVESGGGVVQPGRSLRLSCAASGFTFSSYGMHWVRQAPGKGLEWVAVISYDGSNKYYADSVKGRFTISRDNSKNTLYLQMNSLRAEDTAVYYCAKEGELRGAFDIWGQGTMVTVSS
VL: SYVLTQPPSVSVAPGKTARITCGGDNIESKYVHWYQQKPGQAPVLVIYYDTDRPSGIPERFSGANSGNSATLTISRVEAGDEADYYCQVWDRTSGHFVFGPGTKVTVL
B6 was tested, and the “Pseudovirus IC50” value [1] was greater than 42 µg/mL.

B7: 21-H1 (antibody, V domains shown)
VH: QVQLVESGGGVVQPGRSLRLSCAASGFTFSSYGMHWVRQAPGKGLEWVAVISYDGSNKYYADSVKGRFTISRDNSKNTLYLQMNSLRAEDTAVYYCAKEGELRGAFDIWGQGTTVTVSS
VL: DIVMTQSPLSLPVTPGEPASISCTSSQSLLHSIGYNFVDWYLQKPGQSPQLLIYSASNRASGVPDRFSGSGSGTDFTLKISRVEAEDVGVYYCMQALQRTLYTFGQGTKVESK
For B7, the “Pseudovirus IC50” value [1] was greater than 42 µg/mL.

B8: 23-H7 (antibody, V domains shown)
VH: QVQLVQSGAEVKLPGASMKVSCKASGYTFSTYYMHWVRQAPGQGPEWMGVIDPSGGTTSYAQKFHDRIAMTRDTSTSTAYLELSSLRSEDMAVYYCARGGFADAVDYWGQGTLVTVSS
VL: NFMLTQPHSVSGSPGKTVTISCTRNSGSIAGNYVQWYQQRPGSAPTTVIYEDNQRPSGVPDRFSGSIDSSSNSASLTISGLKTEDEADYYCQSYDASHLHVIFGGGTKVTVL
notes: also called bin 2
For B8, the binding result [2] was “binds” and the “Pseudovirus IC50” value [1] was 0.84 µg/mL.

B9: 23-H7 Fab (Fab, V domains shown)
VH: QVQLVQSGAEVKLPGASMKVSCKASGYTFSTYYMHWVRQAPGQGPEWMGVIDPSGGTTSYAQKFHDRIAMTRDTSTSTAYLELSSLRSEDMAVYYCARGGFADAVDYWGQGTLVTVSS
VL: NFMLTQPHSVSGSPGKTVTISCTRNSGSIAGNYVQWYQQRPGSAPTTVIYEDNQRPSGVPDRFSGSIDSSSNSASLTISGLKTEDEADYYCQSYDASHLHVIFGGGTKVTVL
B9 gave a Kd [3] of 13 nM, a Kd [4] of 14 nM and a Kd [5] of 9 nM. The Kd [6] was 6 nM.

B10: 8-A2 (antibody, V domains shown)
VH: QVQLVQSGAEVKKPGASVKVSCKASGYTFTGYYLHWVRQAPGQGLEWMGRINPNSGGTNYAQKFQGRVTMTRDTSISTAYMELSRLTSDDTAVYYCLAVAGTGGDAFDIWGQGTTVTVSS
VL: DIQMTQSPSTLSASVGDRVTITCRASQSISSWLAWYQQKPGKAPKLLIYAASSLESGVPSRFSGSGSGTDFTLTISSLQPEDFATYYCQQGHSFPLTFGGGTKVDIK
For B10, the “Pseudovirus IC50” value [1] was greater than 42 µg/mL.

B11: 21-F2 (antibody, V domains shown)
VH: QVQLVQSGAEVKKPGASVTVSCKTSGYIFTNYDINWVRQAPGQGLEWVGWVNPNSGKVGYAQKFQGRVIMTRSDSESTAYMELTNLTSDDTAVYYCARGHTDFWGQGTLVTVSS
VL: QSVLTQPPSVSEAPRQRVTISCSGSSSNIGNNAVNWYQQLPGRAPKLLIYYDDLLPSGVSDRFSGSKSGTSASLAISGLQSEDEADYYCAAWDDSLNGVVFGGGTQLTVL
In the case of B11, the “Pseudovirus IC50” value [1] is reported as 0.84 µg/mL.

B12: 21-F2 optimized (antibody, V domains shown)
VH: QVQLVQSGAEVKKPGASVTVSCKTSGYIFTNYDINWVRQAPGQGLEWVGWVNPNSGKVGYAQKFQGRVIMTRSDSESTAYMELTQLTSDDTAVYYCARGHTDFWGQGTLVTVSS
VL: QSVLTQPPSVSEAPRQRVTISCSGSSSNIGNNAVNWYQQLPGRAPKLLIYYDDLLPSGVSDRFSGSKSGTSASLAISGLQSEDEADYYCAAWDDSLNGVVFGGGTQLTVL
B12: binds [7].

B13: 27-A11 (antibody, V domains shown)
VH: QVQLVQSGAEVKKPGASVKVSCKASGYTFTSYYMHWVRQAPGQGLEWMGIIDPSGGSTSYAQKFQGRVTLTRDTSTSTVYMELSSLRSEDTAVYYCARSRDGYIDDAFDIWGQGTLVTVSS
VL: QSVLTQPPSVSAAPGQKVTISCSGSSSNIGNNYVSWYQQLPGTAPKLLIYDNNKRPSGIPDRFSGSKSGTSATLGITGLQTGDEADYYCGTWDSSLSAGVFGGGTKLTVL
For B13, the “Pseudovirus IC50” value [1] was 12.8 µg/mL.

B14: 22-D9 (antibody, V domains shown)
VH: QVQLVQSGAEVKKPGSSVNVSCKTSGGTFNTYSINWVRQAPGQGLEWMGEIIPIFDKPNYAQKFQGRVTITADESTSTAYMELTSLRSDDTAVYYCARGTGYYYGMDVWGQGTTVTVSS
VL: QSVLTQPPSVSGAPRQTVTISCFGSRSNIGNYPVNWYHQVPGKAPKVVVYYDDLLPSGISDRFSGYKSGTSASLTISGLRSEDEADYYCATWDDSLNVWVFGGGTKLTVL
notes: also called bin 4
For B14, the binding result [2] was “binds” and the “Pseudovirus IC50” value [1] was 4.99 µg/mL.

B15: 22-D9 Fab (Fab, V domains shown)
VH: QVQLVQSGAEVKKPGSSVNVSCKTSGGTFNTYSINWVRQAPGQGLEWMGEIIPIFDKPNYAQKFQGRVTITADESTSTAYMELTSLRSDDTAVYYCARGTGYYYGMDVWGQGTTVTVSS
VL: QSVLTQPPSVSGAPRQTVTISCFGSRSNIGNYPVNWYHQVPGKAPKVVVYYDDLLPSGISDRFSGYKSGTSASLTISGLRSEDEADYYCATWDDSLNVWVFGGGTKLTVL
Work on B15 yielded a Kd [8] of 160 nM and a Kd [9] of 163 nM.

B16: 11-H1 (antibody, V domains shown)
VH: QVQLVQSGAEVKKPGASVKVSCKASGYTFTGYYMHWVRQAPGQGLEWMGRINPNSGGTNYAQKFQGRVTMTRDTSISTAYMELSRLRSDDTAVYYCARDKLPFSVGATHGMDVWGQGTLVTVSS
VL: QSVLTQPPSVSEAPRQRVTISCSGSSSNIGNNAVNWYQQLPGQAPRLLIYYDNLLPSGVSDRFSASTSGTSASLAISDLRSEDEADYYCASWDDRLDSPVFGGGTKLTVL
B16 was tested, and the “Pseudovirus IC50” value [1] was greater than 42 µg/mL.
